The source of these data is publication PMC9244803, “Development and Optimization of Bifunctional Fusion Proteins to Locally Modulate Complement Activation in Diseased Tissue” (Frontiers in Immunology, 2022).

Experiment [1] deals with T1, Human C3d crystallised with Fab(3d8b) (human, UniProt P01024).
T1 construct: human C3d as in PDB 7UE9 chain C
The experiment is described as follows: crystal structure; Fab(3d8b):C3d complex, sitting-drop vapor diffusion at 20°C, PEG, pH 7.0 to 8.5; 1.75 Å; PDB 7UE9. To be noted: both partners purified.

Experiment [2] has as its target T2, C3d deposited in the kidneys of CfH^-/- mice (mouse (endogenous in CfH^-/- mouse …, UniProt P01027)).
T2 construct: C3d-containing fragments of mouse complement C3 deposited in renal glomeruli; source: endogenous, kidney glomeruli of CfH^-/- mice
Description: immunostaining of cells or tissue; proteins injected into CfH^-/- mice; frozen kidney sections taken 7 or 14 days post-dose and stained with anti-Crry or anti-human IgG4. As to conditions: one partner purified.

T2 sequence (P01027 1002-1303): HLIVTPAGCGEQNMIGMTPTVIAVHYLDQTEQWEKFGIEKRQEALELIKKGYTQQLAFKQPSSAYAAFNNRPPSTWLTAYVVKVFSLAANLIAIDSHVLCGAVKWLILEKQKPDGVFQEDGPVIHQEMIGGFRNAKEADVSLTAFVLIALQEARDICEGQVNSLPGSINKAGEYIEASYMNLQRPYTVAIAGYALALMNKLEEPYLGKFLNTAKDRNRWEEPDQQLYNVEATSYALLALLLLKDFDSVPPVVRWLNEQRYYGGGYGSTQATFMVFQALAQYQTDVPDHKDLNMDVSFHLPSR
T1 sequence (P01024 1002-1303): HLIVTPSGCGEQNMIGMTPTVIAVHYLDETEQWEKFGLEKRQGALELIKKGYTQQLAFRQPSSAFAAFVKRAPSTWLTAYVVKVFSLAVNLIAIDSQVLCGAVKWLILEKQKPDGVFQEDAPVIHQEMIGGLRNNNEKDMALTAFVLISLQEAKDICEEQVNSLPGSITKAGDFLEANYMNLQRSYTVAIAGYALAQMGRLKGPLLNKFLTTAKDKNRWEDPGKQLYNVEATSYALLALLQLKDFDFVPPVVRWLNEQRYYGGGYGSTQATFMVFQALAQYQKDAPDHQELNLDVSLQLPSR

B1: humanized Fab(3d8b) (Fab, V domains shown)
VH: QVQLVQSGAEVKKPGASVKVSCKASGYTFTNYYINWVRQAPGQGLEWMGVINPYSGGTSYNQKFKGRVTMTVDTSTSTAYMELSSLRSEDTAVYFCSSPYWGQGTLVTVSS
VL: DVVMTQSPLSLPVTLGQPASISCKSSQSLLDSDGKTYLNWFQQRPGQSPRRLIYLVSKLDSGVPDRFSGSGSGTDFTLKISRVEAEDVGVYYCWQGTHFPRTFGGGTKVEIK
notes: heavy chain (H) of PDB 7UE9; light chain (L) of PDB 7UE9; CDRs of mouse clone 3d8b grafted onto a human framework; solved with an IgG4-derived Fab (PDB 5DK3) as search model; also called 3d8b Fab
B1: the binding result in experiment [1] was “binds”.

B2: humanized C3d mAb (CDRs of 3d8b grafted onto human IgG4 S228P, L235E) (antibody, V domains shown)
VH: B1 VH
VL: B1 VL
notes: humanised heavy variable region with the CDRs of 3d8b; as the variable region of the heavy chain of m3 (PDB 7UE9 chain H); human IgG4 heavy constant region, hinge stabilized and Fc-mutated; humanised light chain with the CDRs of 3d8b; as the light chain of m3 (PDB 7UE9 chain L); IgG4; source: CHO cells, transient, purified (Protein A or IMAC, SEC)
In the case of B2, the binding result in experiment [2] was “binds”.

B3: humanized C3d mAb-CR1_(1-10) (antibody, V domains shown)
VH: B1 VH
VL: B1 VL
notes: humanised heavy variable region with the CDRs of 3d8b; as the variable region of the heavy chain of m3 (PDB 7UE9 chain H); human IgG4 heavy constant region, hinge stabilized and Fc-mutated; (Gly4Ser)2 linker; human complement receptor type 1 (CR1), the first 10 consensus repeats; humanised light chain with the CDRs of 3d8b; as the light chain of m3 (PDB 7UE9 chain L); also called lead fusion …
Turning to B3, the binding result in experiment [2] is on record as “binds”.
